The record followed here is the supplement of paper PMC7125110.

± gives the standard error. For some assays here: Variants at the floor of the assay were thinned out.

First the molecules themselves.
B1: glmS ribozyme (parent)
chain: AUAAAAGCGCCAGAACUACAGAAAUGUAGUUGACGAGGAGGAGGUUUAUCGAAUUUUCGGCGGAUGCCUCCAAA

Common to all, as to conditions: with glucosamine-6-phosphate
The variants in series [1] derive from B1. Description: kcat; higher = faster cleavage; RNA array. Put shortly:
(§1)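 kcat and KM were obtained from weighted Michaelis–Menten fits across concentrations of kobs values. Those came from one- or two-exponential decay fits to per-tile medians normalised to baseline and to non-cleaving reference variants. The variants were barcoded ribozymes transcribed in situ by E. coli RNA polymerase on sequenced MiSeq chips and tracked through a hybridised Cy3 probe at 37 °C, with 40 μM to 10 mM glucosamine-6-phosphate in HEPES/KCl/Mg(OAc)2 buffer flowed in.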

Series [2] covers variants of B1. The series can be described thus: self-cleavage kobs at 160 uM GlcN6P; higher = faster cleavage; RNA array. Put shortly: as §1
The variants in series [3] derive from B1. The series can be described thus: KM; higher = weaker cofactor use; RNA array. Put shortly:
as §1

Series [4] covers variants of B1. Description: self-cleavage kobs at 40 uM GlcN6P; higher = faster cleavage; RNA array. An outline of the steps: as §1
Series [5] covers variants of B1. The series can be described thus: self-cleavage kobs at 640 uM GlcN6P; higher = faster cleavage; RNA array. An outline of the steps:
as §1

In series [6] the parent is B1. Description: self-cleavage kobs at 2500 uM GlcN6P; higher = faster cleavage; RNA array. An outline of the steps:
as §1

Variants of B1 are the subject of series [7]. Description: self-cleavage kobs at 10000 uM GlcN6P; higher = faster cleavage; RNA array. An outline of the steps: as §1

AUAAAAGCGCCAGAACUACAGAAAUGUAGUUGACGAGUAGGAGGUUUAUCGAAUGUUCGGCGGAUGCCUCCAAA [G38U U55G]: the kcat with glucosamine-6-phosphate [1] is < 1e-05 s⁻¹. Further, the “self-cleavage kobs at 160 uM GlcN6P” value in the series with glucosamine-6-phosphate [2] is < 1e-05 s⁻¹.

AUAAAAGCGCCAGGACUACAGAAAUGUAGUUGACGAGGAGGAGGUGUAUCGAAUUUUCGGCGGAUGCCUCCAAA [A14G U46G]: the kcat in the series with glucosamine-6-phosphate [1] is 0.0115 ± 0.0033 s⁻¹. Also, in the series with glucosamine-6-phosphate [3], the KM was determined as 997 ± 360 µM. Besides, the “self-cleavage kobs at 40 uM GlcN6P” value in the series with glucosamine-6-phosphate [4] turned out to be 0.000421 ± 7.1e-05 s⁻¹. The “self-cleavage kobs at 160 uM GlcN6P” value with glucosamine-6-phosphate [2] stood at 0.00247 ± 0.001 s⁻¹. For the same variant, the “self-cleavage kobs at 640 uM GlcN6P” value in the series with glucosamine-6-phosphate [5] is 0.00524 ± 0.0017 s⁻¹. Also, the “self-cleavage kobs at 2500 uM GlcN6P” value with glucosamine-6-phosphate [6] amounted to 0.0199 ± 0.0079 s⁻¹. The “self-cleavage kobs at 10000 uM GlcN6P” value with glucosamine-6-phosphate [7] amounted to 0.00927 ± 0.0027 s⁻¹.

Consider AUAAAAGCGCCAGAACUACAGAAAUGUAGUUGACGAGGAGGAGGUUUAUCGAAUGUUCGUCGAAUCCCUCCAAA [U55G G60U G63A G66C], for which the kcat in the series with glucosamine-6-phosphate [1] was determined as 1.16e-05 ± 1e-06 s⁻¹. Besides, the “self-cleavage kobs at 2500 uM GlcN6P” value with glucosamine-6-phosphate [6] was < 1e-05 s⁻¹.

For AUAAAAGCGCCAGAACUACAGAAAUGUAGUUGACGAGGAGGAGGUUUAUCGAAUUAUGGGCGGAUGCCUCCAAA [U56A C58G], the kcat in the series with glucosamine-6-phosphate [1] is 0.000188 ± 1.8e-05 s⁻¹. Also, the Michaelis constant (KM) in the series with glucosamine-6-phosphate [3] was determined as 1930 ± 470 µM. Moreover, the “self-cleavage kobs at 640 uM GlcN6P” value in the series with glucosamine-6-phosphate [5] was 4.15e-05 ± 9.1e-06 s⁻¹. In the series with glucosamine-6-phosphate [6], the “self-cleavage kobs at 2500 uM GlcN6P” value turned out to be 0.000121 ± 1.6e-05 s⁻¹. Further, the “self-cleavage kobs at 10000 uM GlcN6P” value with glucosamine-6-phosphate [7] came out at 0.000151 ± 1.7e-05 s⁻¹.

For AUAAAAGCGCCAGAACUACAGAAAUGUAGUUGACGAGGAGGAGGUUUAUCGAAUUGUCGACGGAUGCCUCCAAA [U56G G60A], the kcat in the series with glucosamine-6-phosphate [1] was determined as 2.37e-05 ± 6.7e-07 s⁻¹. Besides, the KM in the series with glucosamine-6-phosphate [3] came to 623 ± 130 µM. For the same variant, in the series with glucosamine-6-phosphate [4], the “self-cleavage kobs at 40 uM GlcN6P” value was < 1e-05 s⁻¹. For the same variant, in the series with glucosamine-6-phosphate [7], the “self-cleavage kobs at 10000 uM GlcN6P” value is 2.25e-05 ± 1.1e-05 s⁻¹.

AUAAAAGCGCCAGAACUACAGAAAUGUAGUUGACGAGGAGGAGGUUUUUCGAAUGUUCGGCGGAUGCCUCCAAA [A48U U55G]: the kcat in the series with glucosamine-6-phosphate [1] is 0.000482 ± 2.4e-05 s⁻¹. Moreover, the KM in the series with glucosamine-6-phosphate [3] was found to be 3300 ± 360 µM. For the same variant, the “self-cleavage kobs at 640 uM GlcN6P” value in the series with glucosamine-6-phosphate [5] was found to be 7.42e-05 ± 2.3e-05 s⁻¹. In addition, the “self-cleavage kobs at 2500 uM GlcN6P” value with glucosamine-6-phosphate [6] stood at 0.000226 ± 5.6e-05 s⁻¹. Moreover, the “self-cleavage kobs at 10000 uM GlcN6P” value with glucosamine-6-phosphate [7] is 0.000359 ± 4.8e-05 s⁻¹.

On to AUAAAAGCGCCGGAACUACAGAAAUGUAGUUGACGAGGAGGAGGUUUAUCGAAUUUUCGGCGGAUGUCUCCAAA [A12G C67U], for which, in the series with glucosamine-6-phosphate [1], the turnover number (kcat) worked out at 0.000655 ± 3.4e-05 s⁻¹. Also, the KM in the series with glucosamine-6-phosphate [3] is 3650 ± 310 µM. Further, the “self-cleavage kobs at 640 uM GlcN6P” value with glucosamine-6-phosphate [5] was 9.59e-05 ± 9.7e-06 s⁻¹. Further, the “self-cleavage kobs at 2500 uM GlcN6P” value in the series with glucosamine-6-phosphate [6] amounted to 0.000297 ± 5.2e-05 s⁻¹. Moreover, the “self-cleavage kobs at 10000 uM GlcN6P” value in the series with glucosamine-6-phosphate [7] came out at 0.000475 ± 4.3e-05 s⁻¹.

For AUAAAAGCGCCAGAACUACAGAAAUGUAGUUGACGAGGAGGAGGUUUAUCGAAUUAUCGGCGGAUCCCUCCAAA [U56A G66C], the kcat in the series with glucosamine-6-phosphate [1] was found to be 0.000237 ± 5.7e-05 s⁻¹. Also, the “self-cleavage kobs at 640 uM GlcN6P” value with glucosamine-6-phosphate [5] is 0.000107 ± 1.6e-05 s⁻¹. For the same variant, in the series with glucosamine-6-phosphate [6], the “self-cleavage kobs at 2500 uM GlcN6P” value is 0.000132 ± 3.9e-05 s⁻¹. For the same variant, the “self-cleavage kobs at 10000 uM GlcN6P” value with glucosamine-6-phosphate [7] came out at 0.000238 ± 4.6e-05 s⁻¹.

Regarding AUAAAAGCGCCAGAACUACAGAAAUGUAGUUGACGAGGAGGAGGUUUAUCGAAUUUGUGGCGGAUGCCUCCAAA [U57G C58U], in the series with glucosamine-6-phosphate [1], the kcat stood at 2.34e-05 ± 1.1e-05 s⁻¹. For the same variant, in the series with glucosamine-6-phosphate [4], the “self-cleavage kobs at 40 uM GlcN6P” value is < 1e-05 s⁻¹. The “self-cleavage kobs at 160 uM GlcN6P” value with glucosamine-6-phosphate [2] was < 1e-05 s⁻¹.

As for AUAAAAGCGCCAGAACUACAGAAAUGUAGUUGACGAGGAGGAGGUUUAUCGAAUUUUCGGCGAAUGCCACCAAA [G63A U69A], the kcat with glucosamine-6-phosphate [1] worked out at 4.23e-05 ± 1.2e-05 s⁻¹. Also, in the series with glucosamine-6-phosphate [2], the “self-cleavage kobs at 160 uM GlcN6P” value stood at 5.41e-05 ± 2e-05 s⁻¹.

As to AUAAAAGCGCCAGUACUACAGAAAUGUAGUUGACGAGGAGGAGGUUUAUAGAAGUUUCGGCAGAUGCUUCCAAA [A14U C50A U54G G62A C68U], the kcat in the series with glucosamine-6-phosphate [1] came to 3.85e-05 ± 1.7e-05 s⁻¹. The “self-cleavage kobs at 640 uM GlcN6P” value with glucosamine-6-phosphate [5] was 7.62e-05 ± 2.5e-05 s⁻¹.
